Some targets named below: yeast Hsp90 L18R (yeast) (UniProt P02829); yeast Hsp90 L15A (yeast) (UniProt P02829); yeast Hsp90 L18A (yeast) (UniProt P02829).
Another assay addresses human Hsp90β (human) (UniProt P08238). Kind of assay: cross-linking.

Chain of human Hsp90β, P08238 1-724 (natural protein; other documents disagree on this pair) (P08238 whole entry): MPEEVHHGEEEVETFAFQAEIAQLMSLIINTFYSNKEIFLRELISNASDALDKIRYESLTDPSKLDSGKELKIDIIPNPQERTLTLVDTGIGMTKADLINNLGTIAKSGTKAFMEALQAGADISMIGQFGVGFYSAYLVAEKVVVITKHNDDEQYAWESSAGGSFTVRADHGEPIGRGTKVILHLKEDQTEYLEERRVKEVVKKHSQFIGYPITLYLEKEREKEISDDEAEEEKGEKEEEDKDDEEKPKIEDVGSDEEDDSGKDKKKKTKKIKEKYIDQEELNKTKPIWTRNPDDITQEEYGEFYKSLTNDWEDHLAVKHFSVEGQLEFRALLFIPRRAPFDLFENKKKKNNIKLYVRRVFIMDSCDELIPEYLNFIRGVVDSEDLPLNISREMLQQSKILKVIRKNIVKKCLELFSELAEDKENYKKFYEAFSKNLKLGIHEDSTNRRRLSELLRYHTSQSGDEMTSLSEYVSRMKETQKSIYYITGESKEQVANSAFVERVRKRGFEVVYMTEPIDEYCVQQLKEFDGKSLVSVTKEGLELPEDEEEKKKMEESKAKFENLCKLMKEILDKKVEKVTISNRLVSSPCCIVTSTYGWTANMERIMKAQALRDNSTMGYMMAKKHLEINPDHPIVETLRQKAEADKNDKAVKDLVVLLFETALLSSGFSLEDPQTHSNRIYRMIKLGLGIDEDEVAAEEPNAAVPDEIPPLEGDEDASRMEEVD

On to “human Hsp90β, P08238 1-724 (natural protein; other documents disagree on this pair)”, for which the stoichiometry N in the assay with human Hsp90β (human) came out at 2.

Substance “yeast Hsp90 L18R (from UniProt P02829 1-709) (natural protein)” showed an ATPase activity relative to wild-type yeast Hsp90 with yeast Hsp90 L18R (yeast) of 42.

In the assay with yeast Hsp90 L15A (yeast), “yeast Hsp90 L15A (from UniProt P02829 1-709) (natural protein)” showed an ATPase activity relative to wild-type yeast Hsp90 of 157.

Consider “yeast Hsp90 L18A (from UniProt P02829 1-709) (natural protein)”, for which the ATPase activity relative to wild-type yeast Hsp90 with yeast Hsp90 L18A (yeast) amounted to 103.

For orientation: stoichiometry N means a count of units in the complex or per binding partner.
